B1: bovine (calf) chymosin B, recombinant (protein)
chain: GEVASVPLTNYLDSQYFGKIYLGTPPQEFTVLFDTGSSDFWVPSIYCKSNACKNHQRFDPRKSSTFQNLGKPLSIHYGTGSMQGILGYDTVTVSNIVDIQQTVGLSTQEPGDVFTYAEFDGILGMAYPSLASEYSIPVFDNMMNRHLVAQDLFSVYMDRNGQESMLTLGAIDPSYYTGSLHWVPVTVQQYWQFTVDSVTISGVVVACEGGCQAILDTGTSKLVGPSSDILNIQQAIGATQNQYGEFDIDCDNLSYMPTVVFEINGKMYPLTPSAYTSQDQGFCTSGFQSENHSQKWILGDVFIREYYSVFDRANNLVGLAKAI
B2: camel chymosin (Camelus dromedarius chymosin, recombinantly produced) (protein)
chain: GKVAREPLTSYLDSQYFGKIYIGTPPQEFTVVFDTGSSDLWVPSIYCKSNVCKNHHRFDPRKSSTFRNLGKPLSIHYGTGSMEGFLGYDTVTVSNIVDPNQTVGLSTEQPGEVFTYSEFDGILGLAYPSLASEYSVPVFDNMMDRHLVARDLFSVYMDRNGQGSMLTLGAIDPSYYTGSLHWVPVTLQQYWQFTVDSVTINGVAVACVGGCQAILDTGTSVLFGPSSDILKIQMAIGATENRYGEFDVNCGNLRSMPTVVFEINGRDYPLSPSAYTSKDQGFCTSGFQGDNNSELWILGDVFIREYYSVFDRANNRVGLAKAI

Target: kappa-casein of bovine (cow's) milk, P02668
Sequence (P02668 22-190): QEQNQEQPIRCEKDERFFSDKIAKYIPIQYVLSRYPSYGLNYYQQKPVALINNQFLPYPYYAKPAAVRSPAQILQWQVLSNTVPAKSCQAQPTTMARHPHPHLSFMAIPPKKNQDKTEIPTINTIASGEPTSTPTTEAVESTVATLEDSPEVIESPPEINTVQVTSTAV

Protein | Specific activity (IMCU/mg) | Time to clotting [min]
B1 | 223 | 12 to 13
B2 | 462 | 12 to 13

From patent US20110008492
